According to doi:10.1101/2021.09.05.459021 (bioRxiv, 2021):
Several values for one entry are separate records, joined by “and”; a condition that tells them apart may be missing. Equal entries are not always repeated.

Assays:
EGFP fusion of KCNH1 = EGFP fusion of KCNH1 (UniProt O95259); assay: single-molecule subunit counting
[1] = target: mTTYH3 ECD1-T4L-ECD2 (mouse | bacteriophage T4) (UniProt Q6P5F7); assay: cross-linking
SEC = target: the molecule itself; assay: SEC
[2] = target: the molecule itself; assay: single-molecule subunit counting
native gel or EMSA = target: the molecule itself; assay: native gel or EMSA

Q: “EGFP fusion of KCNH1 (from UniProt O95259 1-989) (natural protein)” was tested. Which stoichiometry N (EGFP fusion of KCNH1) did it give?
A: 4

Q: For “mTTYH3 ECD1-T4L-ECD2 (from UniProt Q6P5F7 107-209; Q6P5F7 260-386) (domain or fragment)”, which stoichiometry N [1] is on record?
A: 4

B1: mTTYH1-EGFP (C-terminal EGFP fusion of mouse TTYH1), expressed in HEK 293 cells (natural protein, UniProt Q9D3A9 1-450, looked up)
chain: MGAPPGYRPSAWVHLLHQLPRADFQLRPVPSGFAPRDQEYQQALLLVAALAGLGLGLSLIFIAVYLIRFCCCRPPEPHGAKSPPPGGGCVTWSCIAALLVGCAGIGIGFYGNSETSDGVSQLSSALLHANHTLSTIDDVVLETVERLGEAVKTELTTLEEVLSVRMELVAATRGARRQAEAAAQYLQGLAFWQGVSLSPVQVAEDVTFVEEYRWLAYVLLLLLVLLVCLFTLLGLAKQSKWLVVVMTAMSLLVLVLSWGSMGLEAATAVGLSDFCSNPDTYVLNLTQEETGLSSDILSYYFLCNQAVSNPFQQRLTLSQRALASIHSQLQGLEREAIPQFSAAQKPLLSLEETLNVTERSFHQLVALLHCRSLHKDYGSALRGLCEDALEGLLFLMLFSLLSAGALATTLCSLPRAWALFPPSDDYDDTDDDDPFNPQESKRFVQWQSSI
Q: With B1 as the molecule, how does the “stoichiometry N” value (SEC) read?
A: 4 and 2

B2: mTTYH1-EGFP (C-terminal EGFP fusion of mouse TTYH1), expressed in Xenopus oocytes (natural protein, UniProt Q9D3A9 1-450, looked up)
chain: MGAPPGYRPSAWVHLLHQLPRADFQLRPVPSGFAPRDQEYQQALLLVAALAGLGLGLSLIFIAVYLIRFCCCRPPEPHGAKSPPPGGGCVTWSCIAALLVGCAGIGIGFYGNSETSDGVSQLSSALLHANHTLSTIDDVVLETVERLGEAVKTELTTLEEVLSVRMELVAATRGARRQAEAAAQYLQGLAFWQGVSLSPVQVAEDVTFVEEYRWLAYVLLLLLVLLVCLFTLLGLAKQSKWLVVVMTAMSLLVLVLSWGSMGLEAATAVGLSDFCSNPDTYVLNLTQEETGLSSDILSYYFLCNQAVSNPFQQRLTLSQRALASIHSQLQGLEREAIPQFSAAQKPLLSLEETLNVTERSFHQLVALLHCRSLHKDYGSALRGLCEDALEGLLFLMLFSLLSAGALATTLCSLPRAWALFPPSDDYDDTDDDDPFNPQESKRFVQWQSSI
Q: Which “stoichiometry N” value [2] does the source give for B2 here?
A: 4

B3: FLAG-tagged mouse TTYH1 (mTTYH1) (natural protein, UniProt Q9D3A9 1-450, looked up)
chain: MGAPPGYRPSAWVHLLHQLPRADFQLRPVPSGFAPRDQEYQQALLLVAALAGLGLGLSLIFIAVYLIRFCCCRPPEPHGAKSPPPGGGCVTWSCIAALLVGCAGIGIGFYGNSETSDGVSQLSSALLHANHTLSTIDDVVLETVERLGEAVKTELTTLEEVLSVRMELVAATRGARRQAEAAAQYLQGLAFWQGVSLSPVQVAEDVTFVEEYRWLAYVLLLLLVLLVCLFTLLGLAKQSKWLVVVMTAMSLLVLVLSWGSMGLEAATAVGLSDFCSNPDTYVLNLTQEETGLSSDILSYYFLCNQAVSNPFQQRLTLSQRALASIHSQLQGLEREAIPQFSAAQKPLLSLEETLNVTERSFHQLVALLHCRSLHKDYGSALRGLCEDALEGLLFLMLFSLLSAGALATTLCSLPRAWALFPPSDDYDDTDDDDPFNPQESKRFVQWQSSI
Q: Which “stoichiometry N” value (native gel or EMSA) does the source give for B3 here?
A: 2 and 4

B4: mTTYH3-EGFP (C-terminal EGFP fusion of mouse TTYH3), expressed in HEK 293 cells (natural protein, UniProt Q6P5F7 1-524, looked up)
chain: MAGVSYAAPWWVSLLHRLPHFDLRWEATSSQFRPEDADYQQALLLLGATALACLALDLLFLLFYSFWLCCRRRKTDEHLDADCCCTAWCVIITTLVCSAGIAVGFYGNGETSDGIHRATYSLRHANRTVAGVQDRVWDTAAALNRTAEPNLQSLERQLAGRQEPLRAVQRLQTLLGTLLGYTAAIPFWRNPGVSLEVLAEQVDLYDWYRWLGYLGLLLLDVIICLLVLVGLIRSSKGILVGVCLLGVLALVISWGALGLELAVSVGSSDFCVDPDTFVTKMVEEHSVLSGDILQYYLACSPRATNPFQQKLSGSHKALVEMQDVVAELLRNVPREHPATKDPLLRVQEVLNGTEVNLQHLTALVDCRSLHLDYVQALTGFCYDGVEGLIYLALFSFVTALMFSSIVCSIPHTWQQKRGPDDDGEEETAPGPRQAHDSLYRVHMPSLYSCGSSYGSEASIPAAAHTVSNAPVTEYMSQNANFQNPRCENTPLIGRESPPPSYTSSMRAKYLATSQPRPDSSGSGH
Q: How did the “ratio of tetramers to dimers” value (SEC) turn out when B4 was run?
A: ~1.5

Q: And the “stoichiometry N” value (SEC)?
A: 4 and 2

B5: FLAG-tagged mouse TTYH3 (mTTYH3) (natural protein, UniProt Q6P5F7 1-524, looked up)
chain: MAGVSYAAPWWVSLLHRLPHFDLRWEATSSQFRPEDADYQQALLLLGATALACLALDLLFLLFYSFWLCCRRRKTDEHLDADCCCTAWCVIITTLVCSAGIAVGFYGNGETSDGIHRATYSLRHANRTVAGVQDRVWDTAAALNRTAEPNLQSLERQLAGRQEPLRAVQRLQTLLGTLLGYTAAIPFWRNPGVSLEVLAEQVDLYDWYRWLGYLGLLLLDVIICLLVLVGLIRSSKGILVGVCLLGVLALVISWGALGLELAVSVGSSDFCVDPDTFVTKMVEEHSVLSGDILQYYLACSPRATNPFQQKLSGSHKALVEMQDVVAELLRNVPREHPATKDPLLRVQEVLNGTEVNLQHLTALVDCRSLHLDYVQALTGFCYDGVEGLIYLALFSFVTALMFSSIVCSIPHTWQQKRGPDDDGEEETAPGPRQAHDSLYRVHMPSLYSCGSSYGSEASIPAAAHTVSNAPVTEYMSQNANFQNPRCENTPLIGRESPPPSYTSSMRAKYLATSQPRPDSSGSGH
Q: For B5, which “stoichiometry N” value (native gel or EMSA) is on record?
A: 2 and 4

B6: mTTYH3-EGFP (C-terminal EGFP fusion of mouse TTYH3), expressed in Xenopus oocytes (natural protein, UniProt Q6P5F7 1-524, looked up)
chain: MAGVSYAAPWWVSLLHRLPHFDLRWEATSSQFRPEDADYQQALLLLGATALACLALDLLFLLFYSFWLCCRRRKTDEHLDADCCCTAWCVIITTLVCSAGIAVGFYGNGETSDGIHRATYSLRHANRTVAGVQDRVWDTAAALNRTAEPNLQSLERQLAGRQEPLRAVQRLQTLLGTLLGYTAAIPFWRNPGVSLEVLAEQVDLYDWYRWLGYLGLLLLDVIICLLVLVGLIRSSKGILVGVCLLGVLALVISWGALGLELAVSVGSSDFCVDPDTFVTKMVEEHSVLSGDILQYYLACSPRATNPFQQKLSGSHKALVEMQDVVAELLRNVPREHPATKDPLLRVQEVLNGTEVNLQHLTALVDCRSLHLDYVQALTGFCYDGVEGLIYLALFSFVTALMFSSIVCSIPHTWQQKRGPDDDGEEETAPGPRQAHDSLYRVHMPSLYSCGSSYGSEASIPAAAHTVSNAPVTEYMSQNANFQNPRCENTPLIGRESPPPSYTSSMRAKYLATSQPRPDSSGSGH
Q: For B6, which “stoichiometry N” value [2] is on record?
A: 4
